Molecular target: polyhistidine-tagged canine PD-L1 protein (cPD-L1-His) (dog)
Experiment: SPR; Biacore X100, CM5 chip, His Capture Kit: cPD-L1-His captured by immobilised anti-histidine antibody (approximately 400 RU); cPD-1-Ig or cCD80-Ig flowed over; HBS-EP+ running and dilution buffer; two state reaction model

| Substance | Kd |
| --- | --- |
| recombinant canine CD80 protein fused to rabbit IgG Fc (cCD80-Ig) (Fc fusion) | 24.3 nM |
| recombinant canine PD-1 protein (cPD-1-Ig) (Fc fusion) | 25.4 nM |

Source: paper PMC5567082
